Reference: US20150064134A1

Key:
Test in all cases: cell-based or functional assay
CK2(h) (human) = CK2(h) (human) (UniProt P68400)
IKKα(h) (human) = biological target: T1, IKKα(h) (human) (UniProt O15111)
T1 sequence (looked up): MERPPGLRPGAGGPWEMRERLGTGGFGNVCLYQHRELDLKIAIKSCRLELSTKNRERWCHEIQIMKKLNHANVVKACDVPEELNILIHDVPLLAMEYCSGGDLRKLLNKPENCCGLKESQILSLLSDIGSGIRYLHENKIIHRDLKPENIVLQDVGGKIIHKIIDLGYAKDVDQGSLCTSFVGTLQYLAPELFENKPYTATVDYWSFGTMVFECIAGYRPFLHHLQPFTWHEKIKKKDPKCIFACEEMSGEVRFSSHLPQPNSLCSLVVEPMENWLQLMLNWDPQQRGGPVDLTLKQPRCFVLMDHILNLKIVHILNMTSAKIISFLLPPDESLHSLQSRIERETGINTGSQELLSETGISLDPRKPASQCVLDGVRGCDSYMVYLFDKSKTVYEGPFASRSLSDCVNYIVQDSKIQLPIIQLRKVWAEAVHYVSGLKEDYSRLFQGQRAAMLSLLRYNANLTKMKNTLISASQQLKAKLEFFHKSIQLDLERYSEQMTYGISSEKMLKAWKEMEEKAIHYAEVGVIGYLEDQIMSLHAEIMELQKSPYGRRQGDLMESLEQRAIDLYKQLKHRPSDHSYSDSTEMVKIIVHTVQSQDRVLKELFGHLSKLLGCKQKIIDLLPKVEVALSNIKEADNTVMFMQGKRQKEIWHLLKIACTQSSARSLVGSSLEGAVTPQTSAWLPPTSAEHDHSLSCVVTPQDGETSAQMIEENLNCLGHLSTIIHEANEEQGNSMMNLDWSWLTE

MAPKAP-K3(h) (human) = MAPKAP-K3(h) (human) (UniProt Q16644)
MST2(h) (human) = biological target: T2, MST2(h) (human) (UniProt Q13188)
T2 sequence (looked up): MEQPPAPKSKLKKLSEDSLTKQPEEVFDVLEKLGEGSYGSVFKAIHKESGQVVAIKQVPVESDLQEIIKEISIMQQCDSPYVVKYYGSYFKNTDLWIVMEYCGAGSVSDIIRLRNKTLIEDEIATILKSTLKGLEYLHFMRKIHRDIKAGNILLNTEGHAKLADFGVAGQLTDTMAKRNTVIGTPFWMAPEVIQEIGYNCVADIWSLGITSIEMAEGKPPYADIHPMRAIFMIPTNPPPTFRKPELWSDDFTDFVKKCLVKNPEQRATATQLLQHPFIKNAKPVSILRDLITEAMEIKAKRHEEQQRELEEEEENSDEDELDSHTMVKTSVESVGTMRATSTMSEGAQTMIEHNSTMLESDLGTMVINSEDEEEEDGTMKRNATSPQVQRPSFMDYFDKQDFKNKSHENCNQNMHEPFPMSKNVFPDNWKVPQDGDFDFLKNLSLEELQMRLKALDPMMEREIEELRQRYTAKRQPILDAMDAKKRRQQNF

PKCµ(h) (human) = biological target: T3, PKCµ(h) (human) (UniProt Q15139)
T3 sequence (looked up): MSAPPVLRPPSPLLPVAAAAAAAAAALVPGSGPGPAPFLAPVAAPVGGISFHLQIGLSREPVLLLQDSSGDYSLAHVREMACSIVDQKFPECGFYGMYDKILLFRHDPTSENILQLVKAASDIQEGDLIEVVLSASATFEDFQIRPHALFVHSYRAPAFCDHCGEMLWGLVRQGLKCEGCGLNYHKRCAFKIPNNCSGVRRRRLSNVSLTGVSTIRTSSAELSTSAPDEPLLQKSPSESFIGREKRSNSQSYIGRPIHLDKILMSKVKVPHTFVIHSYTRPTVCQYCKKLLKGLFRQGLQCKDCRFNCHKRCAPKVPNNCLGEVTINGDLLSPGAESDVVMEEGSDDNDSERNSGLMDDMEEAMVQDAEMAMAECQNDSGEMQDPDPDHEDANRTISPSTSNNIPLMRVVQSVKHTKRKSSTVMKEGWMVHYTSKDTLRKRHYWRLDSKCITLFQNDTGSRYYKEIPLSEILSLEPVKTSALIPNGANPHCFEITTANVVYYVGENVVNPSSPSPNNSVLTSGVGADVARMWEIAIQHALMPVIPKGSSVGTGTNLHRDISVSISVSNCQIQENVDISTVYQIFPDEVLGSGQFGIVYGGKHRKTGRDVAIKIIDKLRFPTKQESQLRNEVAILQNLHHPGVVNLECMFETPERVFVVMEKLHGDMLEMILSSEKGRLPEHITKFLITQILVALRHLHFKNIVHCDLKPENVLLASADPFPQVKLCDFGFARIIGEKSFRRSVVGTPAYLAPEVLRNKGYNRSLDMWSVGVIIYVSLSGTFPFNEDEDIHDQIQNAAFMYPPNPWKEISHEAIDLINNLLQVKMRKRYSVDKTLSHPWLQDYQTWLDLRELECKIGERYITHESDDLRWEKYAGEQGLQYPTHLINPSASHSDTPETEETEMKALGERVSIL

PhKγ2(h) (human) = biological target: T4, PhKγ2(h) (human) (UniProt P15735)
T4 sequence (looked up): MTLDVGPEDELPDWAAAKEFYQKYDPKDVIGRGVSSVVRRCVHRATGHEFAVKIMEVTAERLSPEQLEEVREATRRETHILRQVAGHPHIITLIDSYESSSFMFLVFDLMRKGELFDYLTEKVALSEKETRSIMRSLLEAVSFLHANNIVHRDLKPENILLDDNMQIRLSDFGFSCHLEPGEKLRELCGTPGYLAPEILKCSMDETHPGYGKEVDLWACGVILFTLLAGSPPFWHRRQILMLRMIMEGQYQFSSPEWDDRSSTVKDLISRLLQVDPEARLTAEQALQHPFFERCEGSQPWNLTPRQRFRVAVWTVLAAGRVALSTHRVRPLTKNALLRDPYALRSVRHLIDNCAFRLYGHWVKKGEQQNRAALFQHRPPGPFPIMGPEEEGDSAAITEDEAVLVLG

SAPK2a(T106M)(h) (human) = SAPK2a(T106M)(h) (human) (UniProt Q16539)
Chain of SAPK2a(T106M)(h) (human) (Q16539 whole entry T106M): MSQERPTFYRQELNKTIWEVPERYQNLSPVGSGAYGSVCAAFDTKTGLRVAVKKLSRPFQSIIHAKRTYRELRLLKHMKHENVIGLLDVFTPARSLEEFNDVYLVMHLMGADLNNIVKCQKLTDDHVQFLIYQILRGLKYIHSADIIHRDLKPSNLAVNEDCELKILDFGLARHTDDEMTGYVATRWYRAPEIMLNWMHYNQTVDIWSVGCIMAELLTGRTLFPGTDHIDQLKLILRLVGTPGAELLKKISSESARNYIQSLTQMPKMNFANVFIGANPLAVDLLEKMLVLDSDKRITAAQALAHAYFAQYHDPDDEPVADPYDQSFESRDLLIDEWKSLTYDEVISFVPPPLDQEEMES

| Substance | % activity at 100 µM (CK2(h) (human)) | % activity at 100 µM (IKKα(h) (human)) | % activity at 100 µM (MAPKAP-K3(h) (human)) | % activity at 100 µM (MST2(h) (human)) | % activity at 100 µM (PKCµ(h) (human)) | % activity at 100 µM (PhKγ2(h) (human)) | % activity at 100 µM (SAPK2a(T106M)(h) (human)) |
| --- | --- | --- | --- | --- | --- | --- | --- |
| MMI-0300 (peptide) | 90% | 93% | 3% | 19% | 22% | 46% | 97% |
| MMI-0400 (peptide) | 101% | 87% | 7% | 11% | 14% | 38% | 99% |
| MMI-0500 (peptide) | 93% | 50% | 9% | 2% | 10% | 16% | 32% |
